Experimental data published in PMC7736860.

What was measured:
Test in all cases: EMSA
Details in all cases: Chemiluminescent EMSA kit (Beyotime); buffer, salt, pH and temperature not stated
[1] = target: T1, BTF3 (Arabidopsis thaliana) (UniProt Q9SMW7)
T1 sequence: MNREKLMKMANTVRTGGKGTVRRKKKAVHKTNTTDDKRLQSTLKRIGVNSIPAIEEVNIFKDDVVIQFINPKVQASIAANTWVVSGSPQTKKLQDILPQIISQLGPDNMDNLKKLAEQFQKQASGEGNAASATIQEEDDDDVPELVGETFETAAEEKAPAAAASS

[2] = target: T2, HAT1 (Arabidopsis thaliana) (UniProt P46600)
T2 sequence: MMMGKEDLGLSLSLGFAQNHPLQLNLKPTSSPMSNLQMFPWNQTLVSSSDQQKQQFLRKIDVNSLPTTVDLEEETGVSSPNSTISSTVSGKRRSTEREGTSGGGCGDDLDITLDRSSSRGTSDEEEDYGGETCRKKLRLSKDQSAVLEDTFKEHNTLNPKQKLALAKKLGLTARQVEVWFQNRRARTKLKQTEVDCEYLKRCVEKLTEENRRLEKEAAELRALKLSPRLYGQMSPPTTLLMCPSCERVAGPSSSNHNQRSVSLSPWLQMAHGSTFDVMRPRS

[3] = target: T3, TEM1 (TEMPRANILLO1) (Arabidopsis thaliana) (UniProt Q9C6M5)
T3 sequence: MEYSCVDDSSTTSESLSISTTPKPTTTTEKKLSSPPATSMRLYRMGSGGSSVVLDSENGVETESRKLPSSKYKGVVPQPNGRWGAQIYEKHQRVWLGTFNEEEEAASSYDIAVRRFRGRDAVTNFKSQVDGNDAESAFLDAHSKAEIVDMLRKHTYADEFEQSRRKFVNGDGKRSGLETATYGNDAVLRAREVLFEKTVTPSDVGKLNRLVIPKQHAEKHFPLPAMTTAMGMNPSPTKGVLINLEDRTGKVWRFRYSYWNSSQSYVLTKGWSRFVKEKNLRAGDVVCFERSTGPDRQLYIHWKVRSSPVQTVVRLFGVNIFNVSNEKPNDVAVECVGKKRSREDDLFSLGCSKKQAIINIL

[4] = target: T4, bHLH106 (Arabidopsis thaliana) (UniProt O80674)
T4 sequence: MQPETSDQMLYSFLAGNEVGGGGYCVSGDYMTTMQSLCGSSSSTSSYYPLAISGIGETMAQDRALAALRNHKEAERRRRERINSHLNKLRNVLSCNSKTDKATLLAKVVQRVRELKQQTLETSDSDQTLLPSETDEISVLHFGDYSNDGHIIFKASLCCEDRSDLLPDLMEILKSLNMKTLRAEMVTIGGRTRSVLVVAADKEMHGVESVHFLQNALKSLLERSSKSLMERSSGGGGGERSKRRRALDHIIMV

[5] = target: T5, bZIP1664 (Arabidopsis thaliana) (UniProt F4I978)
T5 sequence: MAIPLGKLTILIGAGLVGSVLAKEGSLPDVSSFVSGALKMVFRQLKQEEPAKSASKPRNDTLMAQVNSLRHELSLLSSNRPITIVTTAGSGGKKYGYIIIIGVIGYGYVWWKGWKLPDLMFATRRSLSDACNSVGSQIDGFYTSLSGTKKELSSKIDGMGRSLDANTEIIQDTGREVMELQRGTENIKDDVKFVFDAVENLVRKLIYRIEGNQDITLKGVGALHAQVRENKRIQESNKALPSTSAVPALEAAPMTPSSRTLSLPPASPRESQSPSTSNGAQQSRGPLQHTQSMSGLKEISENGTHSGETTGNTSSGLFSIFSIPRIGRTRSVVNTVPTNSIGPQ

Measured: binding

GTGAAACAGCGTGTGTTATGCACAATAATGGATTCCCGAAGTGGAAGGGTACATTTGTCCTTTCGAGATCAATTTCTCGATACAGTAAAAATGGGCCATTGTTGTTTACTTTTCCTTGGTGTTAAAACAATAATGTAGTGCCCCCACTTAGATATTTTTTTGCTAGGTTTTGGCTCCAACCCAAGAAAAATTCGTTCGGTGACTAATAATAATCGCTGACCCCGA (double strand)
binds: [1] | [2] | [3] | [4] | [5]
